Measured values published in article PMC9785488, “EBF1 Negatively Regulates Brassinosteroid-Induced Apical Hook Development and Cell Elongation through Promoting BZR1 Degradation” (International Journal of Molecular Sciences, 2022).

Molecular target: T1, MBP-EBF1 (Arabidopsis thaliana, UniProt Q9SKK0 1-628)
T1 construct: EBF1, Arabidopsis thaliana, AT2G25490; source: purified using amylose resin
T1 sequence (looked up): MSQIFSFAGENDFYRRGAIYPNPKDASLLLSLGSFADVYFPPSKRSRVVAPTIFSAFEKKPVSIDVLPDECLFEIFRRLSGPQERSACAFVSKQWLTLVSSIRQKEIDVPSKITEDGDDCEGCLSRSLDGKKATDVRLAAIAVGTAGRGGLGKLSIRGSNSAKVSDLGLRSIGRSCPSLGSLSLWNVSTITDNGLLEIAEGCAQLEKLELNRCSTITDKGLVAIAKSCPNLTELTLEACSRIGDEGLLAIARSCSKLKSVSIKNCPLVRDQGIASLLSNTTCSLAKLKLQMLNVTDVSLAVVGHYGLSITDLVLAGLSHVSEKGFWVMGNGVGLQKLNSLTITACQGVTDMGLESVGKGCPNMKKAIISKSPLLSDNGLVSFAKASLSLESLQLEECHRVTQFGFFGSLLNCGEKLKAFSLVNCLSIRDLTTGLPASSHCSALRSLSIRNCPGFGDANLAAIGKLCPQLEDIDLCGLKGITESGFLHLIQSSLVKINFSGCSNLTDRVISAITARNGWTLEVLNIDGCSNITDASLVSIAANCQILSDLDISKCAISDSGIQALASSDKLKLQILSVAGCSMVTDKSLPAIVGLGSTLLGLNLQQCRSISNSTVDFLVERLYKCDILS
Test: pull-down; glutathione beads with 1 µg GST-BZR1 incubated with 1 µg MBP or MBP-EBF1; 20 mM Tris-HCl pH 7.5, 100 mM NaCl, 1 mM EDTA; washed 10 times with 300 mM NaCl, 0.5% Triton X-100; immunoblot with anti-MBP
Conditions: both partners purified

B1: GST-BZR1 (natural protein, Arabidopsis thaliana, UniProt Q8S307 1-336, looked up)
chain: MTSDGATSTSAAAAAAAAAAARRKPSWRERENNRRRERRRRAVAAKIYTGLRAQGDYNLPKHCDNNEVLKALCVEAGWVVEEDGTTYRKGCKPLPGEIAGTSSRVTPYSSQNQSPLSSAFQSPIPSYQVSPSSSSFPSPSRGEPNNNMSSTFFPFLRNGGIPSSLPSLRISNSCPVTPPVSSPTSKNPKPLPNWESIAKQSMAIAKQSMASFNYPFYAVSAPASPTHRHQFHTPATIPECDESDSSTVDSGHWISFQKFAQQQPFSASMVPTSPTFNLVKPAPQQMSPNTAAFQEIGQSSEFKFENSQVKPWEGERIHDVGMEDLELTLGNGKARG
notes: BZR1, Arabidopsis thaliana, At1G75080; also called glutathione S-transferase (GST) fusion protein GST-BZR1; source: bacteria, purified (glutathione beads)
B1: binds.
